{"source": "paper PMC5131902", "about": "“Pheromone Recognition and Selectivity by ComR Proteins among Streptococcus Species” (PLoS Pathogens, 2016)", "key": {"[1]": {"biological_target": "ComR S. bovis 83 (Streptococcus bovis Sbo 83)"}, "[2]": {"biological_target": "ComR S. dysgalactiae subsp. equisimilis ATCC35666 (Streptococcus dysgalactiae subsp. equisimilis ATCC35666)"}, "S. suis S10 (serotype 2)": {"test_system": "S. suis S10 (serotype 2)", "conditions": "cited from earlier work", "text": "One observed difference from published ComR/XIP behavior was for the two S. pyogenes strains used in our study, MGAS5005 (serotype M1) and MGAS315 (serotype M3)."}, "[3]": {"test_system": "S. agalactiae 2603 v/r ComR", "experiment": "S. mutans ES1 test-bed PcomS::luxAB luciferase reporter assay", "type": "cell-based", "conditions": "synthetic peptides titrated to ES1 reporter strain carrying ComR S. agalactiae 2603", "text": "(§1) The entire known SigX regulon, as well as the proximal transcriptional regulator of sigX, ComR, is conserved throughout the Mutans, Bovis, and Pyogenic groups (Fig 1, top). Additionally, within these groups, the mature form of the peptide pheromone ComS contains a conserved double-tryptophan motif (‘WW’) (Fig 1, bottom). This led us to ask whether the putative ComRs encoded by members of these groups could respond to cognate and heterologous XIPs to activate comS and sigX transcription. To test this possibility, we developed a strain that would allow for control of the ComR and XIP variants present within the system. […] Additionally, when a multi-copy plasmid carrying wild-type comR was provided to a ΔcomR strain, the ability to naturally transform exogenous genomic DNA was rescued. With these observations in mind, we created an S. mutans UA159 ‘test bed’ strain, ES1, in which the endogenous comRS locus was replaced with a spectinomycin-resistance cassette (Fig 2A). Because this strain contains neither comS nor comR, it is unable to produce or respond to XIP pheromones. A plasmid was used as a vehicle to provide different comR variants, under control of the native promoter, with adjoining comR-comS intergenic regions containing ComR binding sites and the comS promoter. The plasmid also contains the bacterial luciferase genes, luxAB, under transcriptional control of the cloned comS promoter. Clones harboring each comR-variant plasmid were constructed, grown, and treated with titrations of synthetic XIP peptides. Since productive interaction between ComR and XIP results in transcriptional activation of the comS promoter, we could test the functionality of ComR–XIP interactions by assessing the specific bioluminescent activity of each culture. To ensure that the test bed recapitulated observed results seen in wild-type S. mutans UA159, we assessed the UA159 ComR with serial dilutions of the cognate XIP-C7 (the C-terminal seven amino acids of ComS) and measured bioluminescence levels (Fig 2B).\n(§2) Predicted XIP peptide sequences were determined by identifying open reading frames downstream from the putative ComR gene by using NCBI BLAST to identify UA159 ComR homologues. One to three different lengths of peptide from each species were ordered from NeoScientific (Woburn, MA). Peptide crude extracts (purity 45–75%) were dissolved in DMSO (Fisher Scientific, Hampton, NH) at a concentration of 1 mM based upon the specific purity and stored at -20° C.\n(§3) Starter cultures, from cultures stored in 20% glycerol at -80° C, of each ComR reporter strain were diluted to an OD600 of 0.05 in CDM + erm and incubated at 37° C until an OD^600 of ~0.1. 190 uL aliquots of reporter strain cell culture were added to wells within a 96-well (Greiner Bio-One; Monroe, NC) lidded, clear, flat-bottom plate, each containing 10 μL of DMSO or a 5x-serial dilution of the peptide of interest in DMSO (final concentration of 5% DMSO/well). Concentrations tested for each peptide were 1.3 nM, 6.4 nM, 38.6 nM, 231.5 nM, 1388.9 nM, […], and 50 μM. […] Prepared plates were lidded and sealed with Parafilm (Bemis, Oshkosh, WI) before incubation at 37° C, with continuous shaking, in a Synergy 2 plate reader (Biotek). OD600 and luminescence readings were measured every 15 min. over a 4-hr period. The maximum RLU measurement per well, between 60–240 minutes was recorded using Gen5 data analysis software. […]"}, "[4]": {"biological_target": "ComR S. bovis SboB (Streptococcus bovis SboB)"}, "[5]": {"biological_target": "ComR S. pyogenes MGAS5005 (Streptococcus pyogenes MGAS5005)"}, "[6]": {"biological_target": "ComR S. suis 05ZYH33 (residues 1–304), wild-type (Streptococcus suis 05ZYH33)"}, "[7]": {"biological_target": "ComR S. suis 05ZYH33 (residues 1–304), wild-type (Streptococcus suis 05ZYH33)", "experiment": "ITC; 300 μM XIP injected into 20 μM ComR; VP-ITC, 25°C; 20 mM Tris pH 7.5, 100 mM NaCl, 1 mM β-ME; one-site model"}, "[8]": {"biological_target": "ComR S. suis N220A (Streptococcus suis 05ZYH33)", "experiment": "ITC; 300 μM XIP injected into 20 μM ComR; VP-ITC, 25°C; 20 mM Tris pH 7.5, 100 mM NaCl, 1 mM β-ME; one-site model"}, "S. mutans UA159 ComR": {"biological_target": "S. mutans UA159 ComR (Streptococcus mutans serotype c, UniProt Q8DWI6)", "experiment": "S. mutans ES1 test-bed PcomS::luxAB luciferase reporter assay", "type": "cell-based", "text": "as §1, §2, §3"}, "[9]": {"biological_target": "ComR S. mutans UA159 (Streptococcus mutans UA159)"}, "[10]": {"biological_target": "ComR S. mutans UA159 (Streptococcus mutans UA159)", "remark": "listed apart in the source"}}, "note": "Where two headings read alike, the source gives them in different places. Ends that are not written are not given here.", "data": [{"molecule": "S. bovis 83 XIP-C7 (peptide)", "values": [{"measurement": "EC50 of P comS::luxAB luciferase activity in the S. mutans ES1 test bed", "setting": "[1]", "value": "< 1", "unit": "nM"}]}, {"molecule": "S. dysgalactiae subsp. equisimilis ATCC35666 XIP-C7 (peptide)", "values": [{"measurement": "EC50 of P comS::luxAB luciferase activity in the S. mutans ES1 test bed", "setting": "[2]", "value": 15000, "unit": "nM"}, {"measurement": "increase in reporter activity at 50 μM XIP", "setting": "[2]", "value": 10, "unit": "fold"}]}, {"molecule": "GNWGTWVEE [XIP-C9]", "values": [{"measurement": "transformability upon addition of XIP length variant", "setting": "S. suis S10 (serotype 2)", "value": "highest transformability"}]}, {"molecule": "TGWWMLG [EBS2, designed XIP agonist of ComR S. agalactiae 2603, TGWWMLG]", "values": [{"measurement": "reporter induction of ComR S. agalactiae 2603 (maximum relative luciferase activity), in words", "setting": "[3]", "value": "robust reporter induction"}]}, {"molecule": "S. bovis SboB XIP-C7 (peptide)", "values": [{"measurement": "EC50 of P comS::luxAB luciferase activity in the S. mutans ES1 test bed", "setting": "[4]", "value": "< 1", "unit": "nM"}]}, {"molecule": "S. pyogenes MGAS5005 XIP-C8 (peptide)", "values": [{"measurement": "EC50 of P comS::luxAB transcription in the S. mutans ES1 test bed", "setting": "[5]", "value": 250, "unit": "nM"}, {"measurement": "increase of P comS::luxAB transcription at 50 μM XIP", "setting": "[5]", "value": 25, "unit": "fold"}]}, {"molecule": "S. pyogenes MGAS315 XIP-C8 (peptide)", "values": [{"measurement": "P comS::luxAB transcription at 50 μM XIP, relative to the maximum with the cognate XIP", "setting": "[5]", "value": 25, "unit": "%"}]}, {"molecule": "ETEWWNVG [EBS3, designed XIP of eight residues for ComR S. agalactiae 2603, ETEWWNVG]", "values": [{"measurement": "reporter induction of ComR S. agalactiae 2603 (maximum relative luciferase activity), in words", "setting": "[3]", "value": "did not elicit strong reporter activity"}]}, {"molecule": "S. suis 05ZYH33 XIP-C7 (peptide)", "values": [{"measurement": "EC50 of P comS::luxAB luciferase activity in the S. mutans ES1 test bed", "setting": "[6]", "value": 93, "unit": "nM"}, {"measurement": "Kd", "setting": "[7]", "value": 862, "unit": "nM"}, {"measurement": "dH", "setting": "[7]", "value": -13.6, "unit": "kcal/mol"}, {"measurement": "stoichiometry N", "setting": "[7]", "value": 0.96}, {"measurement": "Kd", "setting": "[8]", "value": 13700, "unit": "nM"}, {"measurement": "dH", "setting": "[8]", "value": -7.28, "unit": "kcal/mol"}, {"measurement": "stoichiometry N", "setting": "[8]", "value": 1.09}]}, {"molecule": "TMGWWGL [NEM316 XIP, putative Type-II XIP of S. agalactiae strain NEM316, TMGWWGL]", "values": [{"measurement": "reporter induction of ComR S. agalactiae 2603 (maximum relative luciferase activity), in words", "setting": "[3]", "value": "unable to activate"}]}, {"molecule": "GLDWWSL [UA159 C7]", "values": [{"measurement": "EC50", "setting": "S. mutans UA159 ComR", "value": 0.17, "unit": "nM"}]}, {"molecule": "LDWWSLG [EBS1, designed XIP agonist of ComR S. agalactiae 2603, LDWWSLG]", "values": [{"measurement": "reporter induction of ComR S. agalactiae 2603 (maximum relative luciferase activity), in words", "setting": "[3]", "value": "robust reporter induction"}]}, {"molecule": "GLDWWSL", "note": "[S. mutans UA159 XIP-C7]", "values": [{"measurement": "EC50 of P comS::luxAB luciferase activity in the S. mutans ES1 test bed", "setting": "[9]", "value": 88, "unit": "nM"}, {"measurement": "EC50 of P comS::luxAB luciferase activity in the S. mutans ES1 test bed", "setting": "[10]", "value": 0.2, "unit": "nM"}, {"measurement": "maximal induction of luciferase activity in the test bed, at 2 nM XIP", "setting": "[10]", "value": 140, "unit": "fold"}, {"measurement": "Kd", "setting": "[7]", "value": 5880, "unit": "nM"}, {"measurement": "dH", "setting": "[7]", "value": -6.01, "unit": "kcal/mol"}, {"measurement": "stoichiometry N", "setting": "[7]", "value": 1.03}, {"measurement": "Kd", "setting": "[8]", "value": 6060, "unit": "nM"}, {"measurement": "dH", "setting": "[8]", "value": -4.26, "unit": "kcal/mol"}, {"measurement": "stoichiometry N", "setting": "[8]", "value": 0.95}]}]}
